Measured values as given in paper PMC6832557, “An Enzyme- and Label-Free Fluorescence Aptasensor for Detection of Thrombin Based on Graphene Oxide and G-Quadruplex”.

Target: thrombin (bovine (plasma), UniProt P00735;P00735 318-366;367-625)
Test: graphene oxide displacement fluorescence assay (NMM/G-quadruplex readout); graphene oxide, NMM; not given in the material (S incubated with GO for 30 min; NMM ex/em 399/610 nm)
Settings: protein: commercial; copies: 1;1; label: none (label-free; NMM as G4 reporter); G-quadruplex (Se part)

AGTCCGTGGTAGGGCAGGTTGGGGTGACTGGGTAGGGCGGGTTGGG (structured_DNA) [S (thrombin aptamer Sa + G-quadruplex part Se)]
binding result: binds
